Earlier results, collected in paper PMC5964610.

Molecular target: FER (Arabidopsis thaliana) (UniProt Q9SCZ4)
Chain of UniProt Q9SCZ4 (Q9SCZ4 28-447): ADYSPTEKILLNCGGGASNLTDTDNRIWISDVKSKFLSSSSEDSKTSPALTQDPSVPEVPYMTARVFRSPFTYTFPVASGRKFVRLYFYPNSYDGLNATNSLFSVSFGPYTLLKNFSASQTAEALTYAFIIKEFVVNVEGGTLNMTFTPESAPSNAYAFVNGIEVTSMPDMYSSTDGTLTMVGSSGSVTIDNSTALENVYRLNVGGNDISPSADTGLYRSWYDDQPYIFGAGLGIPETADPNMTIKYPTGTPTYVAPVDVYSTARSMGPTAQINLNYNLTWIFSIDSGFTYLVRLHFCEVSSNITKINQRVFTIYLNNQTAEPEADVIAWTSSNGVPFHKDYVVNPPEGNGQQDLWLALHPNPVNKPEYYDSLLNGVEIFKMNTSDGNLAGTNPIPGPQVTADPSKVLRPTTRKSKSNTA

Kd: 310 nM
Substance: RALF23 (from UniProt Q9LUS7)
